Experimental data: patent US20160053277A1, “Compositions Having Dicamba Decarboxylase Activity and Methods of Use” (PIONEER HI-BRED INTERNATIONAL, INC., priority 2013, published 2016)

Assay: Shuffled variant libraries: 14CO2 capturing assay in 384-well format
Conditions: decarboxylation activity (carbon dioxide released) compared with unmutated backbone protein SEQ ID NO 380 (DDEC0301)

| Molecule | Fold Activity |
| --- | --- |
| 451 (protein, Dicamba decarboxylase variant) MAQGKVALEEHFAIPETLQDAAGFVPGDYWKELQHRLLDIQDTRLKLMDKHEIETMILSLAAPGVQAIPDRRKAIEIARRANDFLAEEVAKRPDRFLAFAALPLQDPDAATEELQRCVNDLGFVGAMVNGFSVEGDGQTPLYYDLPQYRPFWGEVEKLDVPFYLHPRNPLPQDSRIYDGHPWLLGPTWAFAQETAVHALRLMASGLFDEHPGLQIILGHMGEGLPYMMYRIDHRIAWVKAPPDYPAKRRFMDYFLENFHITTSGNFRTQTLIDAILEIGADRILFSTDWPFENIDHAAAWFAETSIAEADRLKIGRTNARRLFKLDGR | 1.4 |
| 458 (protein, Dicamba decarboxylase variant) MAQGKVALEEHFAIPATLNDAAGFVPGDYWKELQHRLLDIQDTRLKLMDKHEIETMILSLAAPAVQAIPDRRKAIEIARRANDFLAEEVAKRPDRFLAFAALPLQDPDAATEELQRCVNDLGFVGAMVNGFSVEGDGQTPLYYDLPQYRPFWGEVEKLDVPFYLHPRNPLPQDSRIYDGHPWLLGPTWAFAQETAVHALRLMASGLFDEHPGLQIILGHLGEGLPYMMYRIDHRIGWVQAPPDYPAKRRFMDYFLENFHITTSGNFRTQTLIDAILEIGADRILFSTDWPFENIDHAAAWFAETSIAEADRVKIGRTNARRLFKLDGR | 1.2 |
| 452 (protein, Dicamba decarboxylase variant) MAQGKVALEEHFAIPETLQDAAGFVPGDYWKELQHRLLDIQDTRLKLMDKHEIETMILSLAAPAVQAIPDRRKAIEIARRANDFLAEEVAKRPDRFLAFAALPMQDPDAATEELQRCVNDLGFVGAMVNGFSVEGDGQTPLYYDLPQYRPFWGEVEKLDVPFYLHPRNPLPQDSRIYDGHPWLLGPTWAFAQETAVHALRLMASGLFDEHPGLQIILGHMGEGLPYMMYRIDHRIGWVQAPPDYPAKRRFMDYFLENFHITTSGNFRTQTLIDAILEIGADRILFSTDWPFENIDHAADWFNATSIAEADRVKIGRTNARRLFKLDGR | 2.0 |
| 455 (protein, Dicamba decarboxylase variant) MAQGKVALEEHFAIPETLNDAAGFVPGDYWKELQHRLLDIQDTRLKLMDKHEIETMILSLAAPAVQAIPDRRKAIEIARRANDFLAEEVAKRPDRFLAFAALPLQDPDAATEELQRCVNDLGFVGAMVNGFSQEGDGQTPLYYDLPQYRPFWGEVEKLDVPFYLHPRNPLPQDSRIYDGHPWLLGPTWAFAQETAVHALRLMASGLFDEHPRLNIILGHMGEGLPYMMYRIDHRIAWVKAPPDYPAKRRFMDYFLENFHITTSGNFRTQTLIDAILEIGADRILFSTDWPFENIDHAADWFNATSIAEADRVKIGRTNARRLFKLDGR | 2.1 |
| 459 (protein, Dicamba decarboxylase variant) MAQGKVALEEHFAIPETLQDAAGFVPGDYWKELQHRLLDIQDTRLKLMDKHEIETMILSLAAPAVQAIPDRRKAIEIARRANDFLAEEVAKRPDRFLAFAALPLQDPDAATEELQRCVNDLGFVGALVNGFSQEGDGQTPLYYDLPQYRPFWGEVEKLDVPFYLHPRNPLPQDSRIYDGHPWLLGPTWAFAQETAVHALRLMASGLFDEHPRLNIILGHMGEGLPYMMYRIDHRIGWVQAPPDYPAKRRFMDYFLENFHITTSGNFRTQTLIDAILEIGADRILFSTDWPFENIDHAAAWFAETSIAEADRLKIGRTNARRLFKLDGR | 1.1 |
| 454 (protein, Dicamba decarboxylase variant) MAQGKVALEEHFAIPETLQDAAGFVPGDYWKELQHRLLDIQDTRLKLMDKHEIETMILSLAAPAVQAIPDRRKAVEIARRANDFLAEEVAKRPDRFLAFAALPLQDPDAATEELQRCVNDLGFVGAMVNGFSQEGDGQTPLYYDLPQYRPFWGEVEKLDVPFYLHPRNPLPQDSRIYDGHPWLLGPTWAFAQETAVHALRLMASGLFDEHPRLNIILGHMGEGLPYMMYRIDHRIAWVKAPPDYPAKRRFMDYFLENFHITTSGNFRTQTLIDAILEIGADRILFSTDWPFENIDHAADWFNATSIAEADRVKIGRTNARRLFKLDGR | 1.8 |
| 461 (protein, Dicamba decarboxylase variant) MAQGKVALEEHFAIPETLQDAAGFVPGDYWKELQHRLLDIQDTRLKLMDKHEIETMILSLAAPAVQAIPDRVKAIEIARRANDFLAEEVAKRPDRFLAFAALPLQDPDAATEELQRCVNDLGFVGAMVNGFSQEGDGQTPLYYDLPQYRPFWGEVEKLDVPFYLHPRNPLPQDSRIYDGHPWLLGPTWAFAQETAVHALRLMASGLFDEHPRLNIILGHMGEGLPYMMYRIDHRIAWVKAPPDYPAKRRFMDYFLENFHITTSGNFRTQTLIDAILEIGADRILFSTDWPFENIDHAADWFNATSIAEADRVKIGRTNARRLFKLGGR | 1.7 |
| 450 (protein, Dicamba decarboxylase variant) MAQGKVALEEHFAIPETLQDAADFVPGDYWKELQHRLLDIQDQRLRLMDKHEIGTMILSLAAPAVQAIPDRRKAIEIARRANDFLAEEVAKRPDRFLAFAALPMQDVDAATEELQRCVNDLGFVGALVNGFSQEGDGQTPLYYDLPQYRPFWGEVEKLDVPFYLHPRNPLPQDSRIYDGHPWLLGPTWAFAQETAVHALRLMASGLFDEHPGLNIILGHLGEGLPYMMYRIDHRIAWVKAPPDYPAKRRFMDYFNENFHITTSGNFRTQTLIDAILEIGADRILFSTDWPFENIDHAADWFNATSIAEADRVKIGRTNARRLFKLDGR | 0.9 |
| 460 (protein, Dicamba decarboxylase variant) MAQGKVALEEHFAIPETLQDAAGFVPGDYWKELQHRLLDIQDTRLKLMDKHEIETMILSLAAPAVQAIPDRVKAIEIARRANDFLAEEVAKRPDRFLAFAALPLQDVDAATEELQRCVNDLGFVGAMVNGFSQEGDGQTPLYYDLPQYRPFWGEVEKLDVPFYLHPRNPLPQDSRIYDGHPWLLGPTWAFAQETAVHALRLMASGLFDEHPRLNIILGHMGEGLPYMMYRIDHRIAWVKAPPDYPAKRRFMDYFNENFHITTSGNFRTQTLIDAILEIGADRILFSTDWPFENIDHAADWFNAASIAEADRVKIGRTNARRLFKLDGR | 1.9 |
| 457 (protein, Dicamba decarboxylase variant) MAQGKVALEEHFAIPETLQDAAGFVPGDYWKELQHRLLDIQDTRLKLMDKHEIETMILSLAAPAVQAIPDRRKAIEIARRANDFLAEEVAKRPDRFLAFAALPMQDPDAATEELQRCVNDLGFVGAMVNGFSQEGDGQTPLYYDLPQYRPFWGEVEKLDVPFYLHPRNPLPQDSRIYDGHPWLLGPTWAFAQETAVHALRLMASGLFDEHPGLNIILGHLGEGLPYMMYRIDHRIAWVKAPPDYPAKRRFMDYFNENFHITTSGNFRTQTLIDAILEIGADRILFSTDWPFENIDHAAAWFNATSIAEADRLKIGRTNARRLFKLDGR | 1.7 |
| 463 (protein, Dicamba decarboxylase variant) MAQGKVALEEHFAIPETLQDAAGFVPGDYWKELQHRLLDIQDTRLKLMDKHEIETMILSLAAPAVQAIPDRRKAIEIARRANDFLAEEVAKRPDRFLAFAALPLQDVDAATEELQRCVNDLGFVGAMVNGFSQEGDGQTPLYYDLPQYRPFWGEVEKLDVPFYLHPRNPLPQDSRIYDGHPWLLGPTWAFAQETAVHALRLMASGLFDEHPRLNIILGHMGEGLPYMMYRIDHRIAWVKAPPDYPAKRRFMDYFLENFHITTSGNFRTQTLIDAILEIGADRILFSTDWPFENIDHAADWFNATSIAEADRVKIGRTNARRLFKLDGR | 1.6 |
| 462 (protein, Dicamba decarboxylase variant) MAQGKVALEEHFAIPETLQDAADFVPGDYWKELQHRLLDIQDTRLKLMDKHEIETMILSLAAPAVQAIPDRRKAIEIARRANDFLAEEVAKRPDRFLAFAALPLQDVDAATEELQRCVNDLGFVGAMVNGFSQEGDGQTPLYYDLPQYRPFWGEVEKLDVPFYLHPRNPLPQDSRIYDGHPWLLGPTWAFAQETAVHALRLMASGLFDEHPRLNIILGHMGEGLPYMMYRIDHRIAWVKAPPDYPAKRRFMDYFNENFHITTSGNFRTQTLIDAILEIGADRILFSTDWPFENIDHAADWFNATSIAEADRVKIGRTNARRLFKLDGR | 1.1 |
| 453 (protein, Dicamba decarboxylase variant) MAQGKVALEEHFAIPETLQDAAGFVPGDYWKELQHRLLDIQDTRLKLMDKHEIGTMILSLAAPAVQAIPDRVKAIEIARRANDFLAEEVAKRPDRFLAFAALPLQDPDAATEELQRCVNDLGFVGAMVNGFSQEGDGQTPLYYDLPQYRPFWGEVEKLDVPFYLHPRNPLPQDSRIYDGHPWLLGPTWAFAQETAVHALRLMASGLFDEHPRLNIILGHMGEGLPYMMYRIDHRIAWVKAPPDYPAKRRFMDYFLENFHITTSGNFRTQTLIDAILEIGADRILFSTDWPFENIDHAADWFNATSIAEADRVKIGRTNARRLFKLDGR | 1.7 |
| 456 (protein, Dicamba decarboxylase variant) MAQGKVALEEHFAIPETLQDAAGFVPGDYWKELQHRLLDIQDTRLKLMDKHEIGTMILSLAAPAVQAIPDRRKAIEIARRANDFLAEEVAKRPDRFLAFAALPLQDPDAATEELQRCVNDLGFVGAMVNGFSQEGDGQTPLYYDLPQYRPFWGEVEKLDVPFYLHPRNPLPQDSRIYDGHPWLLGPTWAFAQETAVHALRLMASGLFDEHPRLNIILGHMGEGLPYMMYRIDHRIAWVKAPPDYPAKRRFMDYFLENFHITTSGNFRTQTLIDAILEIGADRILFSTDWPFENIDHAADWFNATSIAEADRVKIGRTNARRLFKLDGR | 1.7 |
| 464 (protein, Dicamba decarboxylase variant) MAQGKVALEEHFAIPETLNDAAGFVPSDYWKELQHRLLDIQDTRLKLMDKHEIETMILSLAAPAVQAIPDRVKAIEIARRANDFLAEEVAKRPDRFLAFAALPLQDPDAATEELQRCVNDLGFVGALVNGFSQEGDGQTPLYYDLPQYRPFWGEVEKLDVPFYLHPRNPLPQDSRIYDGHPWLLGPTWAFAQETAVHALRLMASGLFDEHPRLNIILGHMGEGLPYMMYRIDHRIAWVKAPPDYPAKRRFMDYFLENFHITTSGNFRTQTLIDAILEIGADRILFSTDWPFENIDHAADWFNATSIAEADRVKIGRTNARRLFKLDGR | 1.0 |
